A short description of data set [1]: Particle size and stability of amphiphilic carrier molecules by dynamic light scattering. As to conditions: PBS pH 7.4, 0.5 mg/mL, peptide-based linear carriers. Format: physicochemical. On the procedure: This reaction scheme was used to prepare different compositions of amphiphilic carrier molecules that were characterized for the capacity to form stable nanoparticle micelles in aqueous buffer, PBS pH 7.4, at a concentration of 0.5 mg/mL of amphiphilic carrier molecule. The results of these studies are summarized below according to the chemical composition and architecture of the amphiphilic carrier molecule.
A series of linear amphiphilic carriers of formula C-B-L-H, wherein the charged moiety (C) and spacer (B) comprises peptides, i.e., poly(lysine) and poly(serine-co-glycine), respectively, with varying hydrophobic block composition were evaluated for particle size and stability by dynamic light scattering. […]

For data set [2], the system named is CD8 T cell responses. Kind of data set: CD8 T cell response of mice vaccinated with Cpne1 peptide antigen conjugates, intracellular cytokine staining for IFN-g. Format: in vivo, C57BL/6 mice. As to conditions: SC route; vaccinated day 0, 14, 28; whole blood. On the procedure: Mice were vaccinated on day 0, 14, and 28. CD8 T cell responses were measured on day 7, 21, 35, and 42 from whole blood using an intracellular cytokine staining assay for IFN-g production; and
To evaluate the suitability of immunogenic compositions based on peptide antigen fragments comprising aryl amines, mice were either vaccinated with peptide antigen conjugates of formula C-B1-A-B2-L-H, either comprising a charged moiety with positive charge, […] Tyr-Ser-Pro-Val-Cit-Lys(N3-DBCO)-Glu(2B)-Trp-Glu(2B)-Trp-Glu(2B)—NH2 (SEQ ID NO: 76) or a charged moiety with negative charge and a B2 comprised of amino acids bearing aryl amines, i.e., Ac-Glu-Glu-Glu-Glu-Glu-Val-Cit-[…]Try-[…]Cit-Phe(NH2)-Phe(NH2)-Phe(NH2)-Phe(NH2)-Lys(N3-DBCO)-Glu(2B)-Trp-Glu(2B)-Trp-Glu(2B)—NH2 (SEQ ID NO: 42), wherein Phe(NH2) is para-amino-phenylalanine.

For data set [3], the system named is CD8 T cell responses. Kind of data set: CD8 T cell response of mice vaccinated with Adpgk peptide antigen conjugates, intracellular cytokine staining for IFN-g. As to conditions: SC route; vaccinated day 0, 14, 28; whole blood. In kind it is in vivo, C57BL/6 mice.
Protocol: Mice were vaccinated on day 0, 14, and 28. CD8 T cell responses were measured on day 12, 21, and 35 from whole blood using an intracellular cytokine staining assay for IFN-g production;

Non-standard residues stand in square brackets, D forms with d. Primed or numbered codes have the meaning given here. No end group written: not given here. Lys(N3)′ = its azide, alkyne or alkene has reacted where a group follows in round brackets; DBCO′ = not defined here; F′ = aminophenylalanine; Ahx = NCCCCCC(=O)O

In the case of “KKKKKKK-SGSGSGSGSGSGSGSGSGSGSGSG-(Lys(N3-DBCO))-Ahx-(F′)5: peptide-based linear amphiphilic carrier molecule C-B-L-H”, the “Size (diameter, nm)” value in data set [1] amounted to 477 nm.
Take “Ac-Glu-Glu-Glu-Glu-Glu-Val-Cit-Asp-Phe-Thr-Gly-Ser-Asn-Gly-Asp-Pro-Ser-Ser-Pro-Try-Ser-Leu-His-Tyr-Leu-Ser-Pro-Thr-Gly-Val-Asn-Glu-Tyr-Ser-Pro-Val-Cit-Phe(NH2)-Phe(NH2)-Phe(NH2)-Phe(NH2)-Lys(N3-DBCO)-Glu(2B)-Trp-Glu(2B)-Trp-Glu(2B)—NH2 (EEEEEVXDFTGSNGDPSSPYSLHYLSPTGVNEYSPVXXXXXX; acetyl, citrulline, DBCO click conjugate, amidated; SITE 1 Wherein Glu is modified with an acetyl group at the N-terminus; SITE 7 citrulline (Cit); SITE 37 citrulline (Cit); SITE 38..41 para-amino-phenylalanine.; SITE 42 azido-lysine (Lys(N3))) [SEQ ID NO: 42, negatively charged Cpne1 peptide antigen conjugate]”: in data set [2], the “CD8 T cell responses detected in vaccinated animals” value is “detected in all vaccinated animals” and the “CD8 T cell responses, tris salts of the negatively charged conjugate” value is “CD8 T cell responses were induced in all animals”.
“KKK-SGSGSGSGSGSGSGSGSGSGSGSG-(Lys(N3-DBCO))-Bis(Ahx-F′10)2: peptide-based linear amphiphilic carrier molecule C-B-L-H (chain 1 KKKSGSGSGSGSGSGSGSGSGSGSGSG[Lys(N3)′](DBCO′)[Ahx]; chain 2 [F′][F′][F′][F′][F′][F′][F′][F′][F′][F′]; also: two Ahx-F′10 arms, branching not given here, one arm shown)”: the “Size (diameter, nm)” value in data set [1] was 2683 nm.
Take “Ac-Glu-Glu-Glu-Glu-Glu-Glu-Glu-Val-Cit-Gly-Ile-Pro-Val-His-Leu-Glu-Leu-Ala-Ser-Met-Thr-Asn-Met-Glu-Leu-Met-Ser-Ser-Ile-Val- His-Gln-Gln-Val-Phe-Pro-Thr-Ser-Pro-Val-Cit-Phe(NH2)-Phe(NH2)-Phe(NH2)-Phe(NH2)-Lys(N3-DBCO)-Glu(2B)-Trp-Glu(2B)-Trp-Glu(2B)—NH2 (EEEEEEEVXGIPVHLELASMTNMELMSSIVHQQVFPTSPVXXXXXX; N-acetyl, citrulline, Phe(NH2), DBCO click, Glu(2B), amide; SITE 1 Wherein Glu is modified with an acetyl group at the N-terminus; SITE 9 citrulline (Cit); SITE 41 citrulline (Cit); SITE 42..45 para-amino-phenylalanine; SITE 46 azido-lysine (Lys(N3))) [SEQ ID NO: 40]”: the “CD8 T cell responses” value in data set [3] is “CD8 T cell responses were induced in all animals”.
Consider “Lys-Lys-Lys-Lys-Lys-Lys-Lys-Lys-Lys-Val-Arg-Asp-Phe-Thr-Gly-Ser-Asn-Gly-Asp-Pro-Ser-Ser-Pro-Tyr-Ser-Leu-His-Tyr-Leu-Ser-Pro-Thr-Gly-Val-Asn-Glu- Tyr-Ser-Pro-Val-Cit-Lys(N3-DBCO)-Glu(2B)-Trp-Glu(2B)-Trp-Glu(2B)—NH2 (KKKKKKKKKVRDFTGSNGDPSSPYSLHYLSPTGVNEYSPVXX; citrulline, DBCO click conjugate, amidated; SITE 41 citrulline (Cit); SITE 42 azido-lysine (Lys(N3))) [SEQ ID NO: 76, positively charged Cpne1 peptide antigen conjugate]”, for which the “CD8 T cell responses detected in vaccinated animals” value in data set [2] is recorded as “detected in all vaccinated animals”.
For the substance “KKK-SGSGSGSGSGSGSGSGSGSGSGSG-(Lys(N3-DBCO))-Ahx-(F′)10: peptide-based linear amphiphilic carrier molecule C-B-L-H (chain 1 KKKSGSGSGSGSGSGSGSGSGSGSGSG[Lys(N3)′](DBCO′)[Ahx]; chain 2 [F′][F′][F′][F′][F′][F′][F′][F′][F′][F′]; also: chain 2 (F′)10 follows Ahx of chain 1)”, in data set [1], the “Size (diameter, nm)” value is recorded as 3839 nm.
Same read-out and setting: for “KKK-SGSGSGSGSGSGSGSGSGSGSGSG-(Lys(N3-DBCO))-Ahx-(F′)5: peptide-based linear amphiphilic carrier molecule C-B-L-H (chain 1 KKKSGSGSGSGSGSGSGSGSGSGSGSG[Lys(N3)′](DBCO′)[Ahx]; chain 2 [F′][F′][F′][F′][F′]; also: chain 2 (F′)5 follows Ahx of chain 1)” the value was 1013 nm; for “KKKKKKK-SGSGSGSGSGSGSGSGSGSGSGSG-(Lys(N3-DBCO))-Ahx-(F′)20: peptide-based linear amphiphilic carrier molecule C-B-L-H”, 32 nm.
The same measure, in the same setting: for “KKK-SGSGSGSGSGSGSGSGSGSGSGSG-(Lys(N3-DBCO))-Ahx-(F′)20: peptide-based linear amphiphilic carrier molecule C-B-L-H (chain 1 KKKSGSGSGSGSGSGSGSGSGSGSGSG[Lys(N3)′](DBCO′)[Ahx]; chain 2 [F′][F′][F′][F′][F′][F′][F′][F′][F′][F′][F′][F′][F′][F′][F′][F′][F′][F′][F′][F′]; also: chain 2 (F′)20 follows Ahx of chain 1)” the value was 1521 nm.

Source of the values: patent publication US20250381281A1, “METHODS OF MANUFACTURING PEPTIDE-BASED VACCINES” (priority 2018, published 2025).
